Consider one molecule from paper PMC9779223, “Impact of Troponin in Cardiomyopathy Development Caused by Mutations in Tropomyosin” (International Journal of Molecular Sciences, 2022).

In this test the target is T1, Tropomyosin C-terminal fragment Tpm WT 134–284 (human, UniProt P09493 134-284).
T1 construct: also called Tpm C-end; source: E. coli C41 (DE3), purified (anion exchange, HiTrap Q HP)
Briefly: ITC; MicroCal PEAQ-ITC, 25 °C; 30 mM HEPES-Na pH 7.3, 100 mM NaCl, 1 mM DTT; sample in the cell 30 to 60 µM, ligand in the syringe 200 to 700 µM; one set of binding sites. The following applies: both partners purified.

T1 sequence (P09493 134-284): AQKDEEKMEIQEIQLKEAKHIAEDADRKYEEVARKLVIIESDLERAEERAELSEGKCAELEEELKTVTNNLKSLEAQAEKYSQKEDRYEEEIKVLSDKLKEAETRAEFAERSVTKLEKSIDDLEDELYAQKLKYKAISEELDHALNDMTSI

B1: Tropomyosin N-terminal fragment Tpm WT 1–133 (domain or fragment)
chain: not shown
notes: human tropomyosin Tpm1.1 (alpha-Tpm), residues 1-133 (ends at the trypsin site Arg133); Made from the full Tpm1.1 construct by primers that put a stop after Arg133; also called Tpm_(1–133); Tpm N-end; source: E. coli C41 (DE3), purified (anion exchange, HiTrap Q HP)
With B1, the Kd is 10.2 ± 0.3 µM, the dH amounted to 1.95 ± 0.15 kcal/mol and the “stoichiometry N” value is 1.17 ± 0.05.

As usually defined, the Kd is the equilibrium constant for the complex coming apart. The low end stands for a tighter complex, the high end for a looser complex. A word on the stoichiometry N: it is a count of units in the complex or per binding partner.
